Laboratory results from patent publication US20100285027A1 (CENTRE NATIONAL DE LA RECHERCHE SCIENTIFIQUE, published 2010).

Legend:
[1] = molecular target: T1, synthetic human hepcidin-25 (human); experiment: SPR (BIAcore 2000), AN-LP1 immobilized on a CM5 chip, hepcidin 0.39 nM to 12.5 nM as analyte
T1 construct: Synthetic peptide (Peptide International for the blots); Serum hepcidin and liver hepcidin detected by AN-LP1 are written under this molecule
T1 peptide: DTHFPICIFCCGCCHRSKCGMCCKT
Protocol: To estimate AN-LP1 affinity constant and the antibody-antigen interactions, surface plasmon resonance (SPR) measurements were performed with a BIAcore 2000 instrument using carboxymethylated dextran CM5 chips (BIAcore, Piscataway, N.J.). AN-LP1 mAb, dilued at 2 μg/ml in 5 mM maleate buffer (pH 5.75), was immobilized on the CM5 chips by amine coupling.
Hepcidin was diluted in running buffer HBS-EP (0.01M HEPES pH 7.4; 0.15M NaCl, 3 mM EDTA and 0.005% polysorbate 20). Analyte was injected in 3 min, 60 μL/min injections and dissociation was monitored during 10 min. Surface Ab were generated by a 30-s to 1-min injection of glycine-HCL 10 mM pH 2. Kinetic rate constants were determined with purified antibodies. Concentrated hepcidin (0.39 nM to 12.5 nM) were injected over the chip surface at a rate of 60 μL/min to collect binding data. Data analyses were carried out with the BIAevaluation 3.0 software.

[2] = molecular target: T2, irrelevant peptide PELAPVSSNLKYTLDC; experiment: ELISA on coated irrelevant peptide, anti-mouse peroxidase, ABTS, read at 405 nm
T2 construct: Negative control in the ELISA; also called control peptide
T2 peptide: PELAPVSSNLKYTLDC
Protocol: The hepcidin binding properties of AN-LP1 produced by hybridoma CNCM I-3794 were tested by ELISA. Synthetic human hepcidin-25 was coated on 96-well boxes, with a concentration of 1-10 microgram/ml in 100 mM carbonate buffer, pH 9.5. One part of the wells is coated with an irrelevant peptide ([…], SEQ ID NO: 10) to be able to determine the specific component of measured signal. After one night of contact, the wells are washed 3 times with a solution of PBS/0.05% tween 20, then saturated with a solution of 0.1M Tris 20%, sucrose pH 7.8. The mouse serums are added in duplicates, with 10-fold serial dilutions. After a 6 h incubation, the wells were washed three times with a solution of PBS 0.05%, tween 20 and an anti-mouse antibody coupled with peroxidase (Biosource) diluted to 1/5,000 in PBS, 0.1% BSA, 0.01% Tween 20 was added for an additional 1 h30-2 h.

[3] = molecular target: T3, synthetic mouse hepcidin (mouse, UniProt Q9EQ21 59-83); experiment: dot blot on nitrocellulose, antibody 1:200, HRP secondary antibody, ECL
T3 construct: mature; also called murine hepcidin-25
T3 peptide (looked up): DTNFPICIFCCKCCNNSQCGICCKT
Protocol: Samples of synthetic human hepcidin (100 to 500 ng) or synthetic mouse) hepcidin (500 ng) (Peptide International, Louisville, Ky., USA), or of […] sera from a patient with an inflammatory disease, or from a healthy volunteer, were used. In one experiment, one sample of synthetic human hepcidin (500 ng) was treated with Laemmli buffer. The samples were directly spotted onto the nitrocellulose membrane and allowed to dry overnight. Non-specific sites were blocked by soaking the membrane in 5% skim milk in TBS-T (1 hr, at room temperature).
The primary antibodies (AN-LP1 antibody, or irrelevant antibody HPC4 directed against the epitope […] (SEQ ID NO: 11) of human protein C) were added at a dilution of 1:200 from a solution at 6 mg/ml. Incubation was performed for 2 h at room temperature or overnight at +4° C.
After 3 washes with TBS-T, the membranes were incubated with the secondary antibody conjugated with horseradish peroxidase (1:5000) for 1 h at room temperature.

B1: monoclonal antibody AN-LP1 produced by the hybridoma CNCM I-3794 (antibody, V domains shown)
VH: EVQLEESGGGLVQPGGSLKLSCAASGFTFSRYSMSWVRQTPEKRLEWVAYISDGGGSTYSPDTVKGRFSISRDNAQNTLYLQMSSLKSEDTAIFYCVRHARLEGYFDVWGAGTSVTVSS
VL: DVLTQSPASVAVSLGQRATISCRASESVDNYGNSFMNWYQQKPGQPPKLLIYRASNLESGIPARFSGSGSRTDFTLTINPVEADDVATYYCQQSNEDPTFGGGTKLEIKR
notes: also called AN-LP1 mAb; mAb AN-LP1
[1]
  Kd: 99 pM
[2]
  binding result: no binding
[3]
  binding result: no binding (tested: 500 ng)
